Source: PMC6195611
Values joined by “and” are separate entries in the source; they are usually repeats but may differ in a detail not shown here. Identical values can stand only once.

How the values were obtained:
[1] = target: K145E SAASoti (Stylocoeniella armata); assay: SEC; Superdex 200 10/300 GL, 20 mM Tris-HCl 150 mM NaCl pH 7.5, 0.5 ml/min, absorbance at 280 and 509 nm (the legend of Fig. 2 gives Tris-HCl 100 mM, CaCl2 10 mM, pH 7.6); wild type also run with DTT
[2] = target: V127T SAASoti (Stylocoeniella armata); assay: SEC; V127T SAASoti at high concentration (0.22 mM)
[3] = target: K149N SAASoti (Stylocoeniella armata); assay: two-focus fluorescence correlation spectroscopy (2fFCS); diffusion coefficient; 10 mM phosphate buffer, 150 mM NaCl pH 7.4, ~10^-9 M protein, 25 °C
[4] = target: K149N SAASoti (Stylocoeniella armata); assay: SEC; Superdex 200 10/300 GL, 20 mM Tris-HCl 150 mM NaCl pH 7.5, 0.5 ml/min, absorbance at 280 and 509 nm (the legend of Fig. 2 gives Tris-HCl 100 mM, CaCl2 10 mM, pH 7.6); wild type also run with DTT
[5] = target: K149E SAASoti (Stylocoeniella armata); assay: two-focus fluorescence correlation spectroscopy (2fFCS); diffusion coefficient; 10 mM phosphate buffer, 150 mM NaCl pH 7.4, ~10^-9 M protein, 25 °C
[6] = target: K149E SAASoti (Stylocoeniella armata); assay: SEC; Superdex 200 10/300 GL, 20 mM Tris-HCl 150 mM NaCl pH 7.5, 0.5 ml/min, absorbance at 280 and 509 nm (the legend of Fig. 2 gives Tris-HCl 100 mM, CaCl2 10 mM, pH 7.6); wild type also run with DTT
[7] = target: K145N SAASoti (Stylocoeniella armata); assay: two-focus fluorescence correlation spectroscopy (2fFCS); diffusion coefficient; 10 mM phosphate buffer, 150 mM NaCl pH 7.4, ~10^-9 M protein, 25 °C
[8] = target: K145N SAASoti (Stylocoeniella armata); assay: SEC; Superdex 200 10/300 GL, 20 mM Tris-HCl 150 mM NaCl pH 7.5, 0.5 ml/min, absorbance at 280 and 509 nm (the legend of Fig. 2 gives Tris-HCl 100 mM, CaCl2 10 mM, pH 7.6); wild type also run with DTT
[9] = target: wild type SAASoti (Stylocoeniella armata); assay: as above

## K145E SAASoti (natural protein)
[1]
  stoichiometry N: 4

## V127T SAASoti (natural protein)
[2]
  stoichiometry N: 2

## K149N SAASoti (natural protein)
[3]
  stoichiometry N: 4
[4]
  stoichiometry N: 4

## K149E SAASoti (natural protein)
[5]
  stoichiometry N: 4
[6]
  stoichiometry N: 4

## K145N SAASoti (natural protein)
[7]
  stoichiometry N: 4
[8]
  stoichiometry N: 4

## wild type SAASoti (natural protein)
[9]
  stoichiometry N: 4 and 8
